Reference: publication doi:10.64898/2025.12.06.692711

Tests used:
[1] = target: HTkC (TK1040), face-to-face (FtF) histone from Thermococcus kodakarensis (Thermococcus kodakarensis); assay: SEC-MALS
[2] = target: HTkC R45A (Thermococcus kodakarensis); assay: SEC-MALS

A stoichiometry N [1] of 4 was found for “HTkC (TK1040), face-to-face (FtF) histone from Thermococcus kodakarensis (natural protein)” in this work.

A stoichiometry N [2] of 2 was found for HTkC R45A (natural protein) in this work.
